Measured values: publication PMC9970984

Biological target: RNA polymerase II (RNAP II), endogenous
Experiment: Co-IP (IP: myc, Western blot for RNA Pol II, band intensity printed below lanes)
Conditions: HCT116 cells transfected with myc-KAT8 WT or myc-KAT8 2KR plasmid; parent: 1.0

- ratio to parent: 3.5
Substance: myc-KAT8 (lysine acetyltransferase 8), wild type (from UniProt Q9H7Z6) K168R; K175R
